We go through one molecule from patent US20220332804A1 (CSL INNOVATION, published 2022).

The Kd is a measure of binding affinity in units of concentration. Low values mean a tighter complex, high ones a looser complex.

What all share (experiment): SPR, antibody captured, C2 as analyte;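 also: biacore at 37 °C, anti-C2 mAbs held by immobilised goat anti-human IgG, C2 alanine or serine mutants injected, double-referenced sensorgrams fitted to a 1:1 kinetic or steady-state model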
(In general: SPR reads the build-up and loss of mass on a sensor chip optically.)

For one assay, the target named is T1, human C2 N403A (human, UniProt P06681 21-752).
T1 sequence: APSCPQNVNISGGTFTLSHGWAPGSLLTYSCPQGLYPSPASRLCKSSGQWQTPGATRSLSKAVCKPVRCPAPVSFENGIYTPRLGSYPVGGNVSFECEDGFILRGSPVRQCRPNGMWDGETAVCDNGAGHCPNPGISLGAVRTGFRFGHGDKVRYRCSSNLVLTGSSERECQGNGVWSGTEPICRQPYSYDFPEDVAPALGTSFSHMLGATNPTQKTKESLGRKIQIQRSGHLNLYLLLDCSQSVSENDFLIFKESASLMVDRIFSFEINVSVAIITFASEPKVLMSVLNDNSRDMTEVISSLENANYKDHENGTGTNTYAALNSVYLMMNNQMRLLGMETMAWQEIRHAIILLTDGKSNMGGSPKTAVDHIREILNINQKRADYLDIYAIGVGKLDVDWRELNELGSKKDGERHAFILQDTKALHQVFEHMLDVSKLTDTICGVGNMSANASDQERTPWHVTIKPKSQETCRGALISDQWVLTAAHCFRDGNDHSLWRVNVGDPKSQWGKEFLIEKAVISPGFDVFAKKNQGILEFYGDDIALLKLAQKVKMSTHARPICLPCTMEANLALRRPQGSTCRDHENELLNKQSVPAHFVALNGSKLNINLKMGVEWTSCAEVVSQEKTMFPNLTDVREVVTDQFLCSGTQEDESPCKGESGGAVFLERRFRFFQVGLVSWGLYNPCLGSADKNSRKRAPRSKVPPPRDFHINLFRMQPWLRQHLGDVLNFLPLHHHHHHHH

The target of a further assay is T2, human C2 W420A (human, UniProt P06681 21-752).
T2 sequence: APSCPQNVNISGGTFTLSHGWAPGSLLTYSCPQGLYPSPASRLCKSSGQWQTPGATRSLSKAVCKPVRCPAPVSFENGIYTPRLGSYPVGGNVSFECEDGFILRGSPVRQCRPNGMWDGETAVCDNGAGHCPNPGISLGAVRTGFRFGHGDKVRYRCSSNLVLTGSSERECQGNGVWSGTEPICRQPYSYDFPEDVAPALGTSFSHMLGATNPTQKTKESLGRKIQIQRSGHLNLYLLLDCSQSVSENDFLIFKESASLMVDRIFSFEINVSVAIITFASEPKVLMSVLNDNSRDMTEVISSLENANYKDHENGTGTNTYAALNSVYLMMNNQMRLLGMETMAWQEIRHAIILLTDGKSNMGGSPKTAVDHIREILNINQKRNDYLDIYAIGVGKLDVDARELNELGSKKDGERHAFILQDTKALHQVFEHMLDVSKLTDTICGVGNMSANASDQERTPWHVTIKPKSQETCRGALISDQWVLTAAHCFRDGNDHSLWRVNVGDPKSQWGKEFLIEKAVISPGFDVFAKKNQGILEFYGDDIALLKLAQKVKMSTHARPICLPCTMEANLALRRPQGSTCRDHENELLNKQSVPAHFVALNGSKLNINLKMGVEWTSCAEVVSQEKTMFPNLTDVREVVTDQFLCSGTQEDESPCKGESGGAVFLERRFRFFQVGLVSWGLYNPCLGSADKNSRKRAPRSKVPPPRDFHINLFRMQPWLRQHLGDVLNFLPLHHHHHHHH

For another assay, the target named is T3, human C2 D431A (human, UniProt P06681 21-752).
T3 sequence: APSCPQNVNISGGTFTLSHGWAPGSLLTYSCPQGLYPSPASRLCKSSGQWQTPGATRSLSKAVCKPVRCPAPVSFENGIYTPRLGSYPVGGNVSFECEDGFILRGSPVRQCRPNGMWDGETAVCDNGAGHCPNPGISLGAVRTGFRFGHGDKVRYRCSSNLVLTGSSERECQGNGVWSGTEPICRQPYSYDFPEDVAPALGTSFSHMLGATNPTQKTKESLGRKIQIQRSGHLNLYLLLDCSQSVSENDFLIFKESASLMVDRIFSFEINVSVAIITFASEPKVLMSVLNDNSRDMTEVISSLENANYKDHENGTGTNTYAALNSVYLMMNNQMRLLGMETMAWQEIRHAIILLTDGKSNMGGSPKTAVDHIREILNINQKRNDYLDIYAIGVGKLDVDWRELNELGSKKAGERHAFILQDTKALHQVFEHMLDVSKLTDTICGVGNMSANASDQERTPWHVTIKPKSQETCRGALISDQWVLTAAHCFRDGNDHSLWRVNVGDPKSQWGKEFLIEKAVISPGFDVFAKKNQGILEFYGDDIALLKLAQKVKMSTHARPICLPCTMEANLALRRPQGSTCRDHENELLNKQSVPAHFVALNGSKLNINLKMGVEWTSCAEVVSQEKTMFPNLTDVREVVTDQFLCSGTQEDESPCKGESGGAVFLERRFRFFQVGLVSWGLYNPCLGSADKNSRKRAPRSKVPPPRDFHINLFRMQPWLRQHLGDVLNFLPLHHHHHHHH

The next assay addresses T4, human C2 D454A (human, UniProt P06681 21-752).
T4 sequence: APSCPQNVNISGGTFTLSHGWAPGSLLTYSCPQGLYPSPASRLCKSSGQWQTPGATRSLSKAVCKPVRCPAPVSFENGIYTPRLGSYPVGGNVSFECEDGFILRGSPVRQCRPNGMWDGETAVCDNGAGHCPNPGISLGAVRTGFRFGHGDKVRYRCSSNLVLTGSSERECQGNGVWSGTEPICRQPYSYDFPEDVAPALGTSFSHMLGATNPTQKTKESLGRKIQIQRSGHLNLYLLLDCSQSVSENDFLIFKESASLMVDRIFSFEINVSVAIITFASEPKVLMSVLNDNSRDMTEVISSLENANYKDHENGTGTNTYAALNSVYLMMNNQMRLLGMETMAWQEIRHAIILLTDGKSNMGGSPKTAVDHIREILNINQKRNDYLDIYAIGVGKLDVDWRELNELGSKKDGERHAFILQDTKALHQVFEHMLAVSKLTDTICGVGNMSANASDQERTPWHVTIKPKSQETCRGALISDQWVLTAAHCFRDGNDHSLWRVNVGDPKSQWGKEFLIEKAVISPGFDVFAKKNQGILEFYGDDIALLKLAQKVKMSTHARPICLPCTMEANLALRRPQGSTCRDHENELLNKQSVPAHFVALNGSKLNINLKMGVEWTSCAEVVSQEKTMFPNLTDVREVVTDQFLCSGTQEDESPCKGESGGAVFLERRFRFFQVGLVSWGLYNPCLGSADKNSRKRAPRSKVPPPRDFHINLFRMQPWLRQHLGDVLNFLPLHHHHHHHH

B1: RF16-242 (antibody, human IgG4 S228P, lambda, V domains shown)
VH: EVQLLQSGAEVKKPGESLKISCKGSGYSFTSYWIGWVRQMPGKGLEWMGIIYPGDSDTRYSPSFQGQVTISADKSISTAYLQWSSLKASDTAMYYCARRGHYGDYFDYWGQGTLVTVSS
VL: SYELTQPPSVSVSPGQTARITCSGDALPKKYAYWYHQKSGQAPVLVIYEDRRRPSEIPERFSGSSSGTMATLTITGAQVEDEGVYFCYSRDRAGNQRVFGGGTQLTVLG
notes: pH-dependent anti-C2 antibody from a phage display library
Turning to B1, the Kd was 8.2 nM with human C2 N403A, 13.2 nM in the assay with human C2 W420A, 22.9 nM in the assay with human C2 D431A and 35.4 nM with human C2 D454A.
